According to US8163873:

Assays:
[1] = biological target: purified abnormally phosphorylated tau, mixed with affinity-purified normal tau (human) (UniProt P10636); assay: competition ELISA on captured tau mixture; signal of biotinylated AT8 with casein control, no competing antibody (row 111 ng/ml)
[2] = biological target: affinity-purified normal human tau (human) (UniProt P10636); assay: sandwich ELISA, normal tau at 100 ng/ml, fixed concentration of AT8
[3] = biological target: purified abnormally phosphorylated tau, mixed with affinity-purified normal tau (human) (UniProt P10636); assay: competition ELISA on captured tau mixture; unlabeled AT8 at 111 ng/ml, competitor biotinylated AT8 (its signal is read)
[4] = biological target: purified abnormally phosphorylated tau, mixed with affinity-purified normal tau (human) (UniProt P10636); assay: competition ELISA on captured tau mixture; unlabeled AT8 at 333 ng/ml, competitor biotinylated BT2 (its signal is read)
[5] = biological target: PHF-tau (abnormally phosphorylated human tau, 64 and 68 kDa forms, from Alzheimer brain) (human) (UniProt P10636); assay: sandwich ELISA, PHF-tau diluted 1/200, fixed concentration of AT8
[6] = biological target: purified abnormally phosphorylated tau, mixed with affinity-purified normal tau (human) (UniProt P10636); assay: competition ELISA on captured tau mixture; unlabeled AT8 at 37 ng/ml, competitor biotinylated BT2 (its signal is read)
[7] = biological target: purified abnormally phosphorylated tau, mixed with affinity-purified normal tau (human) (UniProt P10636); assay: competition ELISA on captured tau mixture; unlabeled AT8 at 9 µg/ml, competitor biotinylated BT2 (its signal is read)
[8] = biological target: purified abnormally phosphorylated tau, mixed with affinity-purified normal tau (human) (UniProt P10636); assay: competition ELISA on captured tau mixture; unlabeled AT8 at 37 ng/ml, competitor biotinylated AT8 (its signal is read)
[9] = biological target: purified abnormally phosphorylated tau, mixed with affinity-purified normal tau (human) (UniProt P10636); assay: competition ELISA on captured tau mixture; unlabeled AT8 at 1 µg/ml, competitor biotinylated BT2 (its signal is read)
[10] = biological target: purified abnormally phosphorylated tau, mixed with affinity-purified normal tau (human) (UniProt P10636); assay: competition ELISA on captured tau mixture; unlabeled AT8 at 3 µg/ml, competitor biotinylated AT8 (its signal is read)
[11] = biological target: purified abnormally phosphorylated tau, mixed with affinity-purified normal tau (human) (UniProt P10636); assay: competition ELISA on captured tau mixture; unlabeled AT8 at 333 ng/ml, competitor biotinylated AT8 (its signal is read)
[12] = biological target: purified abnormally phosphorylated tau, mixed with affinity-purified normal tau (human) (UniProt P10636); assay: competition ELISA on captured tau mixture; signal of biotinylated AT8 with casein control, no competing antibody (row 333 ng/ml)
[13] = biological target: purified abnormally phosphorylated tau, mixed with affinity-purified normal tau (human) (UniProt P10636); assay: competition ELISA on captured tau mixture; unlabeled AT8 at 1 µg/ml, competitor biotinylated AT8 (its signal is read)
[14] = biological target: purified abnormally phosphorylated tau, mixed with affinity-purified normal tau (human) (UniProt P10636); assay: competition ELISA on captured tau mixture; signal of biotinylated AT8 with casein control, no competing antibody (row 3 µg/ml)
[15] = biological target: purified abnormally phosphorylated tau, mixed with affinity-purified normal tau (human) (UniProt P10636); assay: competition ELISA on captured tau mixture; unlabeled AT8 at 3 µg/ml, competitor biotinylated BT2 (its signal is read)
[16] = biological target: purified abnormally phosphorylated tau, mixed with affinity-purified normal tau (human) (UniProt P10636); assay: competition ELISA on captured tau mixture; signal of biotinylated AT8 with casein control, no competing antibody (row 9 µg/ml)
[17] = biological target: purified abnormally phosphorylated tau, mixed with affinity-purified normal tau (human) (UniProt P10636); assay: competition ELISA on captured tau mixture; signal of biotinylated AT8 with casein control, no competing antibody (row 37 ng/ml)
[18] = biological target: purified abnormally phosphorylated tau, mixed with affinity-purified normal tau (human) (UniProt P10636); assay: competition ELISA on captured tau mixture; unlabeled AT8 at 9 µg/ml, competitor biotinylated AT8 (its signal is read)
[19] = biological target: PHF-tau (abnormally phosphorylated human tau, 64 and 68 kDa forms, from Alzheimer brain) (human) (UniProt P10636); assay: sandwich ELISA, PHF-tau diluted 1/2000, fixed concentration of AT8
[20] = biological target: purified abnormally phosphorylated tau, mixed with affinity-purified normal tau (human) (UniProt P10636); assay: competition ELISA on captured tau mixture; unlabeled AT8 at 111 ng/ml, competitor biotinylated BT2 (its signal is read)
[21] = biological target: purified abnormally phosphorylated tau, mixed with affinity-purified normal tau (human) (UniProt P10636); assay: competition ELISA on captured tau mixture; signal of biotinylated AT8 with casein control, no competing antibody (row 1 µg/ml)
[22] = biological target: PHF-tau (abnormally phosphorylated human tau, 64 and 68 kDa forms, from Alzheimer brain) (human) (UniProt P10636); assay: sandwich ELISA, PHF-tau diluted 1/20, fixed concentration of AT8
[23] = biological target: affinity-purified normal human tau (human) (UniProt P10636); assay: sandwich ELISA, normal tau at 1 µg/ml, fixed concentration of AT8
[24] = biological target: affinity-purified normal human tau (human) (UniProt P10636); assay: sandwich ELISA, normal tau at 10 ng/ml, fixed concentration of AT8
[25] = biological target: purified abnormally phosphorylated tau, mixed with affinity-purified normal tau (human) (UniProt P10636); assay: competition ELISA on captured tau mixture; unlabeled BT2 at 111 ng/ml, competitor biotinylated BT2 (its signal is read)
[26] = biological target: purified abnormally phosphorylated tau, mixed with affinity-purified normal tau (human) (UniProt P10636); assay: competition ELISA on captured tau mixture; signal of biotinylated BT2 with casein control, no competing antibody (row 3 µg/ml)
[27] = biological target: purified abnormally phosphorylated tau, mixed with affinity-purified normal tau (human) (UniProt P10636); assay: competition ELISA on captured tau mixture; unlabeled BT2 at 111 ng/ml, competitor biotinylated AT8 (its signal is read)
[28] = biological target: purified abnormally phosphorylated tau, mixed with affinity-purified normal tau (human) (UniProt P10636); assay: competition ELISA on captured tau mixture; unlabeled BT2 at 333 ng/ml, competitor biotinylated BT2 (its signal is read)
[29] = biological target: purified abnormally phosphorylated tau, mixed with affinity-purified normal tau (human) (UniProt P10636); assay: competition ELISA on captured tau mixture; unlabeled BT2 at 37 ng/ml, competitor biotinylated AT8 (its signal is read)
[30] = biological target: purified abnormally phosphorylated tau, mixed with affinity-purified normal tau (human) (UniProt P10636); assay: competition ELISA on captured tau mixture; signal of biotinylated BT2 with casein control, no competing antibody (row 37 ng/ml)
[31] = biological target: purified abnormally phosphorylated tau, mixed with affinity-purified normal tau (human) (UniProt P10636); assay: competition ELISA on captured tau mixture; unlabeled BT2 at 1 µg/ml, competitor biotinylated BT2 (its signal is read)
[32] = biological target: purified abnormally phosphorylated tau, mixed with affinity-purified normal tau (human) (UniProt P10636); assay: competition ELISA on captured tau mixture; signal of biotinylated BT2 with casein control, no competing antibody (row 333 ng/ml)
[33] = biological target: purified abnormally phosphorylated tau, mixed with affinity-purified normal tau (human) (UniProt P10636); assay: competition ELISA on captured tau mixture; unlabeled BT2 at 333 ng/ml, competitor biotinylated AT8 (its signal is read)
[34] = biological target: purified abnormally phosphorylated tau, mixed with affinity-purified normal tau (human) (UniProt P10636); assay: competition ELISA on captured tau mixture; unlabeled BT2 at 9 µg/ml, competitor biotinylated BT2 (its signal is read)
[35] = biological target: purified abnormally phosphorylated tau, mixed with affinity-purified normal tau (human) (UniProt P10636); assay: competition ELISA on captured tau mixture; signal of biotinylated BT2 with casein control, no competing antibody (row 1 µg/ml)
[36] = biological target: purified abnormally phosphorylated tau, mixed with affinity-purified normal tau (human) (UniProt P10636); assay: competition ELISA on captured tau mixture; unlabeled BT2 at 1 µg/ml, competitor biotinylated AT8 (its signal is read)
[37] = biological target: purified abnormally phosphorylated tau, mixed with affinity-purified normal tau (human) (UniProt P10636); assay: competition ELISA on captured tau mixture; signal of biotinylated BT2 with casein control, no competing antibody (row 9 µg/ml)
[38] = biological target: purified abnormally phosphorylated tau, mixed with affinity-purified normal tau (human) (UniProt P10636); assay: competition ELISA on captured tau mixture; signal of biotinylated BT2 with casein control, no competing antibody (row 111 ng/ml)
[39] = biological target: purified abnormally phosphorylated tau, mixed with affinity-purified normal tau (human) (UniProt P10636); assay: competition ELISA on captured tau mixture; unlabeled BT2 at 9 µg/ml, competitor biotinylated AT8 (its signal is read)
[40] = biological target: purified abnormally phosphorylated tau, mixed with affinity-purified normal tau (human) (UniProt P10636); assay: competition ELISA on captured tau mixture; unlabeled BT2 at 3 µg/ml, competitor biotinylated AT8 (its signal is read)
[41] = biological target: purified abnormally phosphorylated tau, mixed with affinity-purified normal tau (human) (UniProt P10636); assay: competition ELISA on captured tau mixture; unlabeled BT2 at 3 µg/ml, competitor biotinylated BT2 (its signal is read)
[42] = biological target: purified abnormally phosphorylated tau, mixed with affinity-purified normal tau (human) (UniProt P10636); assay: competition ELISA on captured tau mixture; unlabeled BT2 at 37 ng/ml, competitor biotinylated BT2 (its signal is read)

monoclonal antibody AT8
absorbance at 450 nm [1]: 0.576 A450
A150 nm [2]: 0.005 A150 nm
absorbance at 450 nm [3]: 0.155 A450
absorbance at 450 nm [4]: 0.369 A450
A150 nm [5]: 1.18 A150 nm
absorbance at 450 nm [6]: 0.36 A450
absorbance at 450 nm [7]: 0.369 A450
absorbance at 450 nm [8]: 0.282 A450
absorbance at 450 nm [9]: 0.368 A450
absorbance at 450 nm [10]: 0.054 A450
absorbance at 450 nm [11]: 0.093 A450
absorbance at 450 nm [12]: 0.564 A450
absorbance at 450 nm [13]: 0.059 A450
absorbance at 450 nm [14]: 0.573 A450
absorbance at 450 nm [15]: 0.375 A450
absorbance at 450 nm [16]: 0.578 A450
absorbance at 450 nm [17]: 0.568 A450
absorbance at 450 nm [18]: 0.056 A450
A150 nm [19]: 0.565 A150 nm
absorbance at 450 nm [20]: 0.381 A450
absorbance at 450 nm [21]: 0.548 A450
A150 nm [22]: 1.46 A150 nm
A150 nm [23]: 0.021 A150 nm
A150 nm [24]: 0.001 A150 nm

monoclonal antibody BT2
absorbance at 450 nm [25]: 0.245 A450
absorbance at 450 nm [26]: 0.39 A450
absorbance at 450 nm [27]: 0.573 A450
absorbance at 450 nm [28]: 0.179 A450
absorbance at 450 nm [29]: 0.549 A450
absorbance at 450 nm [30]: 0.395 A450
absorbance at 450 nm [31]: 0.122 A450
absorbance at 450 nm [32]: 0.381 A450
absorbance at 450 nm [33]: 0.556 A450
absorbance at 450 nm [34]: 0.071 A450
absorbance at 450 nm [35]: 0.375 A450
absorbance at 450 nm [36]: 0.55 A450
absorbance at 450 nm [37]: 0.369 A450
absorbance at 450 nm [38]: 0.385 A450
absorbance at 450 nm [39]: 0.548 A450
absorbance at 450 nm [40]: 0.557 A450
absorbance at 450 nm [41]: 0.088 A450
absorbance at 450 nm [42]: 0.318 A450
